Where two headings read alike, the source gives them in different places.

Test [1] concerns the target IVIg (Octagam), pool of human IgG (human). Nature of the test: cell-based or functional assay.
Test [2] has the same target. Briefly: cell-based or functional assay. This is another data set of the same source.

In test [1], “pCART124 (IdeS control with N terminal methionine and histidine tag) (enzyme)” returned a 1st IgG heavy chain IgG to scIgG, Conc. of enzyme (ng/ml), gel of 1900 ng/mL. Also, the 2nd IgG heavy chain scIgG to F(ab')2, Conc. of enzyme (ng/ml), gel in test [1] was determined as 7500 ng/mL; in test [2] it was 6000 ng/mL.

The record behind these values is patent publication US20250304937A1.
